Laboratory results taken from article doi:10.1101/2022.09.26.507980 (bioRxiv, 2022).

Molecular target: T1, NiV-F wild type expressed on 293T cells (Nipah virus, UniProt Q9IH63)
T1 construct: source: HEK293T, transiently transfected, on cells
Assay: flow cytometry on cells
Details: one partner purified

B1: mAb92 (antibody, V domains shown)
VH: QSLEESGGRLVTPGTPLTLTCTASGFSLSSYYMMWVRQAPGKGLEWIGIINTGGNAYYASWTKGRFTISKTSTTVDLKITSPTTEDTATYFCARAVPSGAGYSAGGLWGPGTLVTVSS
VL: DQVLTQTPASVEAAVGGTVTIKCQASQSVGFYLSWYQQKPGQPPKLLIYRASTLESGVPSRFKGSGSGTEFTLTISDLECADAATYYCQTNDYLASSAFGGGTEVVVR
notes: also called monoclonal antibody 92
binding result: binds
